Data from patent US20230265151A1, “GIP/GLP1 CO-AGONIST COMPOUNDS” (priority 2020, published 2023).

Assays:
human glucagon receptor [1] = target: human glucagon receptor (human, UniProt P47871 26-477); assay: cell-based or functional assay
human GIP receptor = target: T1, human GIP receptor (human, UniProt P48546 22-466); assay: SPA competition vs [125I]-GIP, hGIPR membranes
T1 construct: whole, on cells; also called hGIPR; human glucose-dependent insulinotropic polypeptide receptor
T1 sequence (looked up): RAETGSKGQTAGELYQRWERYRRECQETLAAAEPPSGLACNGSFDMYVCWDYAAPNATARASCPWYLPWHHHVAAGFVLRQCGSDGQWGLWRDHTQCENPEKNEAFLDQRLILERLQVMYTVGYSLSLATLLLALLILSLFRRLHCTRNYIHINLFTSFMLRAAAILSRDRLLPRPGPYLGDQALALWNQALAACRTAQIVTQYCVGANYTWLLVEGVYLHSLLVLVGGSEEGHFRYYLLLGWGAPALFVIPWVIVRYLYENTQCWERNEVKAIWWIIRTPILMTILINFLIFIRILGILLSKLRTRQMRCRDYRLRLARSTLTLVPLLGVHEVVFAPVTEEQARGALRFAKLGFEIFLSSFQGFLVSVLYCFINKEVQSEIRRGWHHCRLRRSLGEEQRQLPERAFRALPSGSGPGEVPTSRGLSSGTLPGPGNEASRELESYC
Protocol: (§1) The binding buffer contains 25 mM HEPES, pH 7.4, 2.5 mM CaCl₂, 1 mM MgCl₂, 0.1% (w/v) bacitracin, 0.003% (w/v) TWEEN®-20, and Roche Complete™ Protease Inhibitors without EDTA. […] Plates are sealed and mixed on a plate shaker (setting 6) for 1 minute and read with a PerkinElmer Trilux MicroBeta® scintillation counter after 2.5 to 12 hours of incubation/settling time at room temperature.
(§2) Data are analyzed using four-parameter (curve maximum, curve minimum, IC₅₀, Hill slope) nonlinear regression routines (Genedata Screener, version 12.0.4, Genedata AG, Basal, Switzerland). […] Values for Kᵢ are reported as the geometric mean, with error expressed as the standard error of the mean (SEM) and n is equal to the number of independent replicates (determined in assays performed on different days). Geometric Means are calculated as follows: […]

human GLP-1 receptor = target: T2, human GLP-1 receptor (human, UniProt P43220 24-463); assay: SPA competition vs [125I]-GLP-1, hGLP-1R membranes
T2 construct: whole, on cells; also called hGLP-1R; human glucagon-like peptide-1 receptor
Protocol: The binding buffer contains 25 mM HEPES, pH 7.4, 2.5 mM CaCl₂, 1 mM MgCl₂, 0.1% (w/v) bacitracin, 0.003% (w/v) TWEEN®-20, and Roche Complete™ Protease Inhibitors without EDTA.
as §2

human glucagon receptor [2] = target: T3, human glucagon receptor (human, UniProt P47871 26-477); assay: SPA competition vs [125I]-Gcg, hGcgR membranes
T3 construct: whole, on cells; also called hGCGR; hGcgR
Protocol: as §1, with “4-(2-hydroxyethyl)-1-piperazineethanesulfonic acid (HEPES),” for “HEPES,”, “MgCh,” for “MgCl₂,”, “bacitracin (Research Products),” for “bacitracin,”, “Polyoxyethylenesorbitan monolaurate (TWEEN®-20),” for “TWEEN®-20,”, “after” for “after 2.5 to”
T3 sequence (P47871 26-477): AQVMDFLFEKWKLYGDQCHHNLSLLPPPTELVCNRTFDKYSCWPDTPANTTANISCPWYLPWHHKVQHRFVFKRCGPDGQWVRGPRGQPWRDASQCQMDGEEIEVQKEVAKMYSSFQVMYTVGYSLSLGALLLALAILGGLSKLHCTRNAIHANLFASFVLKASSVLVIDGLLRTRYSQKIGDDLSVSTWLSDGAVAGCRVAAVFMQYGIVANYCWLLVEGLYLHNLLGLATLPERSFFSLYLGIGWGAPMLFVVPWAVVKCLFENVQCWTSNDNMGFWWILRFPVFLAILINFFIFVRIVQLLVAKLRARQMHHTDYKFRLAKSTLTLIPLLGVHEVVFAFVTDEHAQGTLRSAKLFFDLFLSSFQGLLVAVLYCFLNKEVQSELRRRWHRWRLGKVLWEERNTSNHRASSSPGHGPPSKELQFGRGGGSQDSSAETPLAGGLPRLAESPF
Data are analyzed using four-parameter (curve maximum, curve minimum, IC₅₀, Hill slope) nonlinear regression routines (Genedata Screener, version 12.0.4, Genedata AG, Basal, Switzerland). […] Values for Kᵢ are reported as the geometric mean, with error expressed as the standard error of the mean (SEM) and n is equal to the number of independent replicates (determined in assays performed on different days).

Row | Binder | cAMP EC50 (1.0% HSA) (human glucagon receptor [1]) [µM] | also measured
1 | YXEGTXTSDXSIXLDXKAQXEFIXXLIEGGKSSGAPPPS (Aib2, αMeF(2F)6, 4Pal10, αMeL13, Orn16, Aib20, D-Glu24, αMeY25; acylated K17, K31 (groups as in name); C-terminal amide) [Y-Aib-EGT-αMeF(2F)-TSD-4Pal-SI-αMeL-LD-Orn-K((εK)-(εK)-(γ-Glu)-CO-(CH2)12-CO2H)AQ-Aib-EFI-(D-Glu)-αMeY-LIEGGK((εK)-(εK)-(γ-Glu)-CO-(CH2)12-CO2H)SSGAPPPS-NH2, listing 1 of 2 here] | > 9.95 | –
2 | YXEGTXTSDXSIXLDXKAQXEFIXXLIEGGKSSGAPPPS (Aib2, αMeF(2F)6, 4Pal10, αMeL13, Orn16, Aib20, D-Glu24, αMeY25; acylated K17, K31 (groups as in name); C-terminal amide) [Y-Aib-EGT-αMeF(2F)-TSD-4Pal-SI-αMeL-LD-Orn-K((2-[2-(2-Amino-ethoxy)-ethoxy]-acetyl)-(γ-Glu)-(2-[2-(2-Amino-ethoxy)-ethoxy]-acetyl)-CO-(CH2)12-CO2H)AQ-Aib-EFI-(D …, listing 2 of 2 here] | > 9.95 | –
3 | YXEGTXTSDXSIXLDXKAQXEFIXXLIEGGKSSGAPPPS (Aib2, αMeF(2F)6, 4Pal10, αMeL13, Orn16, K17(Z1), Aib20, D-Glu24, αMeY25, K31(Z1), C-term NH2; Z1=(εK)-(εK)-(γ-Glu)-CO-(CH2)12-CO2H) | – | Ki (human GIP receptor): 0.000163 µM; Ki (human GLP-1 receptor): 0.0016 µM; Ki (human glucagon receptor [2]): 0.223 µM
4 | YXEGTXTSDXSIXLDXKAQXEFIXXLIEGGKSSGAPPPS (Aib2, αMeF6, 4Pal10, αMeL13, Orn16, Aib20, D-Glu24, αMeY25; acylated K17, K31 (groups as in name); C-terminal amide) | > 9.95 | –
5 | YXEGTXTSDXSIXLDXKAQXKFIXXLIEGGPSSGAPPPS (Aib2, αMeF(2F)6, 4Pal10, αMeL13, Orn16, Aib20, D-Glu24, αMeY25; acylated K17, K21 (groups as in name); C-terminal amide) [Y-Aib-EGT-αMeF(2F)-TSD-4Pal-SI-αMeL-LD-Orn-K((2-[2-(2-Amino-ethoxy)-ethoxy]-acetyl)2-(γ-Glu)-(4-(4-tert-butylphenyl)butanoyl))AQ-Aib-K((2-[2-(2-Amino-ethoxy)-et …, listing 1 of 4 here] | > 9.95 | –
6 | YXEGTXTSDXSIXLDXKAQXEFIKXLIEGGPSSGAPPPS (Aib2, αMeF(2F)6, 4Pal10, αMeL13, Orn16, Aib20, αMeY25; acylated K17, K24 (groups as in name); C-terminal amide) | > 9.95 | –
7 | YXEGTXTSDXSIXLDXKAQXKFIXXLIEGGPSSGAPPPS (Aib2, αMeF(2F)6, 4Pal10, αMeL13, Orn16, Aib20, D-Glu24, αMeY25; acylated K17, K21 (groups as in name); C-terminal amide) [Y-Aib-EGT-αMeF(2F)-TSD-4Pal-SI-αMeL-LD-Orn-K((2-[2-(2-Amino-ethoxy)-ethoxy]-acetyl)2-(γ-Glu)-CO-(CH2)10-CH3)AQ-Aib-K((2-[2-(2-Amino-ethoxy)-ethoxy]-acetyl)2-(γ- …, listing 2 of 4 here] | > 9.95 | –
8 | YXEGTXTSDXSIXLDXKAQXEFIXXLIKGGPSSGAPPPS (Aib2, αMeF(2F)6, 4Pal10, αMeL13, Orn16, Aib20, D-Glu24, αMeY25; acylated K17, K28 (groups as in name); C-terminal amide) | > 9.95 | –
9 | YXEGTXTSDXSIXLDXKAQXKFIXXLIEGGPSSGAPPPS (Aib2, αMeF(2F)6, 4Pal10, αMeL13, Orn16, Aib20, D-Glu24, αMeY25; acylated K17, K21 (groups as in name); C-terminal amide) [Y-Aib-EGT-αMeF(2F)-TSD-4Pal-SI-αMeL-LD-Orn-K((2-[2-(2-Amino-ethoxy)-ethoxy]-acetyl)2-CO-(CH2)12-CO2H)AQ-Aib-K((2-[2-(2-Amino-ethoxy)-ethoxy]-acetyl)2-CO-(CH2)12 …, listing 3 of 4 here] | > 9.95 | –
10 | YXEGTXTSDXSIXLDXKAQXKFIXXLIEGGPSSGAPPPS (Aib2, αMeF(2F)6, 4Pal10, αMeL13, Orn16, Aib20, D-Glu24, αMeY25; acylated K17, K21 (groups as in name); C-terminal amide) [Y-Aib-EGT-αMeF(2F)-TSD-4Pal-SI-αMeL-LD-Orn-K((2-[2-(2-Amino-ethoxy)-ethoxy]-acetyl)-(y-Glu)-CO-(CH2)12-CO2H)AQ-Aib-K((2-[2-(2-Amino-ethoxy)-ethoxy]-acetyl)-(γ-G …, listing 4 of 4 here] | > 9.95 | –
